Results from US7547676B2, “Antagonist peptides to the C5A chemotactic function of vitamin D binding protein” (The Research Foundation of State University of New York, priority 2004, dated 2009).

Key:
[1] = system: differentiated HL-60 cells; experiment: Ligand-induced calcium mobilization (Fluo-3 AM) in differentiated HL-60 cells; type: cell-based, Human; conditions: differentiated HL-60 cells incubated 30 min with 50 nM of indicated DBP, then C5a
Experimental: (§1) Cells and cell culture: Human promyelocytic cell line HL-60 was obtained from ATCC (Rockville, Md.) and cultured in RPMI 1640 medium supplemented with 10% FBS. Differentiation of HL-60 cells was initiated with 250 μM Bt2cAMP for 48 hours.
Ligand-induced calcium mobilization. Calcium mobilization studies were performed using the Fluo-3 AM probe as described previously (see Merritt, J. E. et al., Biochem. J. 269, 513-519 (1990)). Differentiated HL-60 cells (1×10^7 cells/ml) were resuspended in HBSS-1% BSA containing 2 μM Fluo-3 AM (Molecular Probes, Eugene, Oreg.) and incubated at 37° C. for 40 minutes. Cells incubated without the dye were used as a control to measure autofluorescence (Fmin). Following the dye uptake, cells were washed twice then suspended at 5×10^6 cells/ml in HBSS containing 1% BSA. Half of the cell suspension was treated with 50 nM DBP for 30 min at room temperature, the other half served as the untreated control. For each measurement, 400 μl of cell suspension (with or without DBP) was added to a cuvette and stimulated with various concentrations of purified C5a at room temperature (22-24° C.). Fluorescence was then measured immediately using a Perkin-Elmer LS-5 fluorometer at 505 nm excitation, 526 nm emission for Fluo-3 AM. Fmax was measured by treating labeled cells with 60 μM digitonin. Intracellular free calcium concentrations were calculated using the following formula: (Ca^2+)=Kd (F−Fmin)/(Fmax−F), where Kd=325 nM for Fluo-3 according to manufacturer (Molecular Probes).

[2] = system: differentiated HL-60 cells; experiment: Chemotaxis assay, differentiated HL-60 cells responding to C5a, C5a plus DBP or ZAS; type: cell-based, Human; conditions: differentiated HL-60 cells; for enhancement of C5a-mediated chemotaxis (net cell movement): 100 pM C5a (FIG. 1: 25-200 pM) plus 50 nM of indicated DBP, 60 min at 37° C
Experimental: Cells (6×10^6/ml) were resuspended in chemotaxis buffer and treated either with chemotaxis buffer (control), 1 μM of peptide 1 (130-152), or 1 μM of peptide 2 (150-172) for 30 min at room temperature. The chemotactic response of differentiated HL-60 cells to 100 pM C5a alone, C5a plus 50 nM full-length natural DBP or 1% zymosan-activated serum (ZAS) was measured for 60 minutes at 37° C. Numbers represent net cell movement in 60 min, mean±SEM of 3 experiments.
as §1
Chemotaxis assay. Chemotaxis was performed as described previously (see Kew, R. R. et al., J. Leukoc. Biol. 58, 55-58 (1995)). In brief, 35 μl of C5a (0.01 to 1 nM) in the chemotaxis buffer (HBSS with 1% BSA, 10 mM HEPES) were placed in duplicate in the lower chamber of a 48-well chamber (Neuroprobe, Md.). The lower compartments were covered with a 5 μm pore cellulose nitrate filter and then 50 μl of the cell suspension (2.5×10^5/well) was pipetted into the upper compartments. The chemotactic chamber was incubated for 1 hour at 37° C. in a humidified incubator with 5% CO2. Following incubation, the filter was fixed, stained and mounted on a microscope slide. Cell movement was measured as the distance in microns that the leading front of the cells had migrated into the filter (see Zigmond, S. et al., J. Exp. Med. 137, 387 (1973)).

B1: DBP: Purified human DBP obtained from Biodesign International (protein)
chain: LERGRDYEKNKVCKEFSHLGKEDFTSLSLVLYSRKFPSGTFEQVSQLVKEVVSLTEACCAEGADPDCYDTRTSALSAKSCESNSPFPVHPGTAECCTKEGLERKLCMAALKHQPQEFPTYVEPTNDEICEAFRKDPKEYANQFMWEYSTNYGQAPLSLLVSYTKSYLSMVGSCCTSASPTVCFLKERLQLKHLSLLTTLSNRVCSQYAAYGEKKSRLSNLIKLAQKVPTADLEDVLPLAEDITNILSKCCESASEDCMAKELPEHTVKLCDNLSTKNSKFEDCCQEKTAMDVFVCTYFMPAAQLPELPDVELPTNKDVCDPGNTKVMDKYTFELSRRTHLPEVFLSKVLEPTLKSLGECCDVEDSTTCFNAKGPLLKKELSSFIDKGQELCADYSENTFTEYKKKLAERLKAKLPDATPTELAKLVNKHSDFASNCCSINSPPLYCDSEIDAELKNIL
[1]
  enhancement of intracellular Ca2+ flux in response to C5a: significantly enhanced intracellular calcium influx
[1]; listed as natural DBP
  enhancement of intracellular Ca2+ flux in response to C5a: significantly enhanced
[2]; listed as natural DBP
  enhancement of C5a-mediated chemotaxis (net cell movement): significantly enhanced
[2]; listed as purified natural DBP
  enhancement of C5a-mediated chemotaxis (net cell movement): significantly enhanced movement to C5a
[2]; no C5a, chemotaxis and Ca2+ flux
  response of cells treated with DBP alone: no response
